# From article PMC7397871
# T1: ZC3H12B PIN + C3H1 crystallization construct (Homo sapiens, UniProt Q5HYM0 179-380)
# T1 sequence: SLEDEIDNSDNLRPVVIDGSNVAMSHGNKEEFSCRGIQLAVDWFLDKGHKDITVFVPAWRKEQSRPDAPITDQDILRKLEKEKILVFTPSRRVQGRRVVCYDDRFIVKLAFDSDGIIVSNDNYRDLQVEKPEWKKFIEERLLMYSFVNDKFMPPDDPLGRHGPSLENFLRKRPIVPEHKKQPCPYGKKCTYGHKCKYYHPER
# Target: T1, ZC3H12B PIN + C3H1 crystallization …
# Assay: X-ray crystallography
binder,measurement,value
"AAUGCGACAGUCGGUAGCAUC (ssRNA, phosphorothioate between nt 1 and 2 (5' end)) [21-nt HTR-SELEX-enriched RNA]",binding result,binds
